In patent US20210009671A1 (AstraZeneca / MedImmune, published 2021):

How the values were obtained:
[1] = target: Recombinant human NGF (Sigma) (human, UniProt P01138 122-241, limits assumed); test: cell-based or functional assay
[2] = target: Recombinant mouse NGF (R&D Systems) (mouse, UniProt P01139 122-241); test: cell-based or functional assay
Sequence of Recombinant mouse NGF (R&D Systems) (P01139 122-241 limits assumed): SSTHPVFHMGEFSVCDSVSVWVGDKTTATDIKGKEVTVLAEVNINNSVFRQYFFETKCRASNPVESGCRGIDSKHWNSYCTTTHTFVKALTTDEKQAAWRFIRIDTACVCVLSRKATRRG

Sequence of Recombinant human NGF (Sigma) (P01138 122-241 limits assumed): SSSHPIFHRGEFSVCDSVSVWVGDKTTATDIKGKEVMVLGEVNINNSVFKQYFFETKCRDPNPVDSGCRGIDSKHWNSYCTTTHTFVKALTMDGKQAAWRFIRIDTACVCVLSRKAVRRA

B1: MEDI-578 IgG1 TM YTE (antibody, V domains shown)
VH: QVQLVQSGAEVKKPGSSVKVSCKASGGTFSTYGISWVRQAPGQGLEWMGGIIPIFDTGNSAQSFQGRVTITADESTSTAYMELSSLRSEDTAVYYCARSSRIYDLNPSLTAYYDMDVWGQGTMVTVSS
VL: QSVLTQPPSVSAAPGQKVTISCSGSSSNIGNNYVSWYQQLPGTAPKLLIYDNNKRPSGIPDRFSGSKSGTSATLGITGLQTGDEADYYCGTWDSSLSAWVFGGGTKLTVL
[1]
  IC50 (read off the curve), human NGF-induced TF-1 proliferation: ~0.7 nM
[2]
  IC50 (read off the curve), murine NGF-induced TF-1 proliferation: ~0.3 nM
